Earlier results in paper PMC4237619.
Like-named read-outs stand apart in the source and are kept apart here.

Key:
VEGF (Homo sapiens) [1] = target: VEGF (Homo sapiens) (UniProt P15692)
VEGF (Homo sapiens) [2] = target: VEGF (Homo sapiens) (UniProt P15692); remark: listed apart in the source
VEGF (Homo sapiens) [3] = target: VEGF (Homo sapiens) (UniProt P15692); remark: listed apart in the source

Chain of UniProt P15692 (P15692 whole entry): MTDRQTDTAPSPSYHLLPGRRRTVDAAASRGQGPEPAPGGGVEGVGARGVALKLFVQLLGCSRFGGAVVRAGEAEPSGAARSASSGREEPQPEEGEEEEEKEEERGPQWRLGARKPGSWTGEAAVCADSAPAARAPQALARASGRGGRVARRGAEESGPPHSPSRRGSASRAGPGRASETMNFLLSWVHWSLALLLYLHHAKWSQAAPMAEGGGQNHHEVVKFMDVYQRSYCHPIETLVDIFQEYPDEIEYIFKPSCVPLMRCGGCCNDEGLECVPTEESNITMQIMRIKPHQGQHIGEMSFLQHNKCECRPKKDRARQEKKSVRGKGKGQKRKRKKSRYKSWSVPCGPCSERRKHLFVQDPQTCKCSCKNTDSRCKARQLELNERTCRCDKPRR

For ATWLPPR peptide, the Kd (VEGF (Homo sapiens) [1]) is given as 0.33 nM.

In the case of NH2-GGGG-SY(SO3)DY(SO3)GGGG-OH peptide, the Kd (VEGF (Homo sapiens) [2]) is given as 910 nM.

For SY(SO3)DY(SO3)G peptide, the Kd (VEGF (Homo sapiens) [3]) is given as 3100 nM.
